# Laboratory results reported in patent publication US20180010117.
# Columns and labels:
# Test in all cases: cell_activity
# [1] = test system: ZFN SBS#61035 (engineered); conditions: paired with 61029, K562, 800 ng RNA each; 63.6 at 200 ng; with 61028 68.7
# [2] = test system: ZFN SBS#61033 (engineered); conditions: paired with 61029, K562, 800 ng RNA each; 76.9 at 200 ng; with 61028 73.5
# [3] = test system: ZFN SBS#61028 (engineered); conditions: paired with 61033, K562, 800 ng RNA each; 54.3 at 200 ng; with 61035 68.7
# [4] = test system: ZFN SBS#61029 (engineered); conditions: paired with 61033, K562, 800 ng RNA each; 76.9 at 200 ng; with 61035 80.7
# [5] = test system: ZFN SBS#61034 (engineered); conditions: paired with 61041, K562, 800 ng RNA each; 9.6 at 200 ng; with 61042 26.1
# [6] = test system: ZFN SBS#61036 (engineered); conditions: paired with 61041, K562, 800 ng RNA each; 14.5 at 200 ng; with 61042 40.6
# [7] = test system: ZFN SBS#61027 (engineered); conditions: paired with 61024, K562, 800 ng RNA each; 4.5 at 200 ng
# [8] = test system: ZFN SBS#61042 (engineered); conditions: paired with 61036, K562, 800 ng RNA each; 12.9 at 200 ng; with 61034 26.1
# [9] = test system: ZFN SBS#61041 (engineered); conditions: paired with 61036, K562, 800 ng RNA each; 14.5 at 200 ng; with 61034 30.1
sequence,measurement,setting,value
CCAATAGGGATAGGTATGAGATATTCAC (double strand) [CEP290 site of 61033/61035],activity,[1],80.7 % indels
same,activity,[2],85.4 % indels
TGGCCCCAGTTGTAATTGTGAATATCTC (double strand) [CEP290 site of 61028/61029],activity,[3],73.5 % indels
same,activity,[4],85.4 % indels
CCCCAGTTGTAATTGTGAATATCTCATA (double strand) [CEP290 site of 61034/61036],activity,[5],30.1 % indels
same,activity,[6],43.6 % indels
TAGGGATAGGTATGAGATATTCACAATT (double strand) [CEP290 site of 61027],activity,[7],27.1 % indels
CCAATAGGGATAGGTATGAGATATTCAC (double strand) [CEP290 site of 61041/61042],activity,[8],40.6 % indels
same,activity,[9],43.6 % indels
